{"source": "paper PMC7988011", "about": "“NAC blocks Cystatin C amyloid complex aggregation in a cell system and in skin of HCCAA patients” (Nature Communications, 2021)", "proteins": {"B1": {"name": "L68Q variant of human cystatin C (natural protein, UniProt P01034 27-146, looked up)", "chain": "SSPGKPPRLVGGPMDASVEEEGVRRALDFAVGEYNKASNDMYHSRALQVVRARKQIVAGVNYFLDVEQGRTTCTKTQPNLDNCPFHDQPHLKRKAFCSFQIYAVPWQGTMTLSKSTCQDA", "notes": "Vector pBABE-CMV-Puro; also called L68Q-hCC; hCC L68Q"}}, "key": {"[1]": {"molecular_target": "the molecule itself", "assay": "non-reducing SDS-PAGE with Western blot; lysates (1% NP-40 buffer) and supernatants of stable HEK-293T cells; 2% SDS sample buffer without reducing agent, not heated; NuPAGE 4-12% Bis-Tris; blotted with anti-cystatin C MAB1196"}, "P01034": {"molecular_target": "P01034", "assay": "non-reducing SDS-PAGE with Western blot; supernatants and cellular extracts incubated with reduced glutathione (3 mM) at 37 °C before electrophoresis; HMW species quantitated by densitometry", "details": "other: non-reducing SDS-PAGE with Western blot"}}, "note": "Values joined by “and” are separate entries in the source; they are usually repeats but may differ in a detail not shown here. Identical values can stand only once."}
{"protein": "B1", "values": [{"measurement": "stoichiometry N", "setting": "[1]", "value": "2 and 3 and 4"}, {"measurement": "percent reduction of HMW species with 3 mM GSH (secreted fraction)", "setting": "P01034", "value": "≈90% reduction of the HMW in the secreted fraction"}]}
